This is an account of results in patent publication US20220017612A1 (TILOS THERAPEUTICS, published 2022).

Like-named read-outs stand apart in the source and are kept apart here.

Test [1] deals with T1, fusion protein of a human IgG1 Fc domain and human LAP-TGFβ1 (human, UniProt P01137 30-390).
T1 construct: printed both as Fc-huB1 and LAP-TGFβ-Fc; also called Fc-huB1; Fc-human LAP
Kind of test: BLI, 2:1 model, component 1. On the procedure:
(§1) The 20E6_H0.2aL1_IgG1 antibody was biotinylated using EZ-Link SulfoNHS-LC-Biotin (ThermoFisher). A streptavidin-functionalized tip was equilibrated in binding buffer (10 mM sodium phosphate, 150 mM sodium chloride, 1% (w/v) bovine serum albumin, 0.05% (w/v) sodium azide, pH 7.4) and dipped in a 10 μg/mL solution of biotinylated anti-LAP in binding buffer for 30 seconds to load the tip with antibody. The antibody-loaded tip was then washed in binding buffer and placed in a solution containing 0-24 nM of a fusion protein having a human IgG1 Fc domain fused to either human LAP-TGFβ1, human LAP-TGFβ2 or human LAP-TGFβ3. The antigen was allowed to bind to antibody for 5 minutes (association phase), and then the tip was moved to binding buffer (dissociation phase). The association and dissociation phases were fit to a 2:1 heterogenous ligand binding model to determine the binding rate constants. As shown in FIG. 21A and Table 17, 20E6_H0.2aL1_IgG1 bound with sub-nanomolar affinity to human LAP-TGFβ1, but not to human LAP-TGFβ2 (FIG. 21B) or LAP-TGFβ3 (FIG. 21C).
(§2) The binding of 20E6_H0.2aL1_IgG1 antibody and 20E6_H0.2aL1_hIgG4mut antibody to LAP-TGFβ1 of various species was examined by bio-layer interferometry using the method described in Example 12, except that the antibody-loaded tip was placed in a solution containing 0-24 nM of a fusion protein having a human IgG1 Fc domain fused to either mouse, rat, cynomolgus monkey, or human LAP-TGFβ1.

The target in test [2] is T2, fusion protein of a human IgG1 Fc domain and cynomolgus monkey LAP-TGFβ1 (human; cynomolgus monkey).
T2 construct: also called cynomolgus monkey LAP-TGFβ-Fc
As to the kind of experiment: BLI, 2:1 model, component 1. On the procedure:
as §1, §2

Test [3] addresses T3, fusion protein of a human IgG1 Fc domain and rat LAP-TGFβ1 (human; rat, UniProt P17246 30-390, limits assumed).
T3 construct: also called rat LAP-TGFβ-Fc
Kind of test: BLI, 2:1 model, component 1. On the procedure:
as §1, §2
In general terms: BLI is a label-free optical method that tracks binding on a fibre tip over time.

Test [4] concerns the target T4, fusion protein of a human IgG1 Fc domain and mouse LAP-TGFβ1 (human; mouse, UniProt P04202 30-390).
T4 construct: also called mouse LAP-TGFβ-Fc
As to the kind of experiment: BLI, 2:1 model, component 1. The procedure: as §1, §2

Test [5] concerns the target T1, fusion protein of a human IgG1 Fc …. Kind of test: BLI, 2:1 model, component 2. On the procedure:
as §1, §2

The target of test [6] is T2, fusion protein of a human IgG1 Fc …. As to the kind of experiment: BLI, 2:1 model, component 2. The procedure: as §1, §2
For test [7], the target named is T3, fusion protein of a human IgG1 Fc …. Kind of test: BLI, 2:1 model, component 2. On the procedure:
as §1, §2

Test [8] concerns the target T4, fusion protein of a human IgG1 Fc …. Kind of test: BLI, 2:1 model, component 2. On the procedure: as §1, §2
Test [9] has as its target T5, human LAP-TGFβ1 overexpressed on cells (human, UniProt P01137 30-390).
T5 construct: HT1080 or P3U1 cells overexpressing wild-type human LAP-TGFβ1; also called HT1080-huB1; HT1080-hβ1
Kind of test: flow cytometry; black bar HT1080-huB1, grey bar HT1080. For orientation: In flow cytometry, cells or beads pass a laser one at a time.

Test [10] deals with T5, human LAP-TGFβ1 overexpressed on cells. The description is as above. The procedure: First, the ability of the humanized 20E6 candidates to bind to HT1080 cells overexpressing human TGFβ1 was tested by flow cytometry. HT1080 cells over-expressing human LAP-TGFβ1 were placed in a round-bottom 96-well plate at density of 40,000 cells/well. The cells were washed with FACS buffer (25 mM HEPES, 2 mM EDTA, 2% fetal bovine serum in Hank's Balanced Salt Solution). A volume (50 μL) of 1:200 diluted TruStain Human FcX (BioLegend) was added to each well, followed by 50 μL of 100 ng/μL of humanized 20E6 antibody construct. The antibody was allowed to bind for 20 minutes. The cells were washed twice with FACS buffer. The cells were labeled for 15 minutes with Alexa647-anti Human IgG (Jackson Immunoresearch), washed twice with FACS buffer, and analyzed by flow cytometry.
This is another data set of the same source.

The target is the same in test [11]. Kind of test: cell-based or functional assay.
Test [12] addresses murine LAP-TGFβ1 overexpressed on cells (mouse, UniProt P04202 30-390). As to the kind of experiment: cell-based or functional assay.
In test [13] the target is T1, fusion protein of a human IgG1 Fc …. As to the kind of experiment: BLI, signal change on binding. The procedure:
(§3) Binding to human TGFβ1 of a subset of candidates was also tested by bio-layer interferometry (Octet). A streptavidin coated tip was equilibrated for 60 seconds in binding buffer (10 mM sodium phosphate, 150 mM sodium chloride, 1% bovine serum albumin, 0.05% sodium azide). The tip was then dipped in 10 μg/mL biotinylated antibody in binding buffer. After 15 seconds, the tip was washed in binding buffer for 60 seconds, and then dipped in 0-24 nM Fc-human LAP. Analyte association was measured for 5 minutes. The tip was transferred to binding buffer alone, and analyte dissociation was measured for 5 minutes. The association and dissociation data were fit to a 1:1 binding model.

For test [14] the target is unchanged. As to the kind of experiment: BLI, antibody on tip, 1:1 model. The procedure:
as §3

T4 sequence (P04202 30-390 limits assumed): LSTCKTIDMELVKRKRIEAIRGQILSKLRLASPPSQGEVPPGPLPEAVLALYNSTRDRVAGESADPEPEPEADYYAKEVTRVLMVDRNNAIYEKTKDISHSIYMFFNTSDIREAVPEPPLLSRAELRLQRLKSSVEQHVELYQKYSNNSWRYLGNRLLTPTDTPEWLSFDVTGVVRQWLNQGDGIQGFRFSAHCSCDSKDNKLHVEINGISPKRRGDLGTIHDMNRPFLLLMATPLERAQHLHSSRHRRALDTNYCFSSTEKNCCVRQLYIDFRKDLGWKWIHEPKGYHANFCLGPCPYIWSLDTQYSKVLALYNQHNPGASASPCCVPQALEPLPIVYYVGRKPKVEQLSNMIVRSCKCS
T1 sequence (P01137 30-390 limits assumed): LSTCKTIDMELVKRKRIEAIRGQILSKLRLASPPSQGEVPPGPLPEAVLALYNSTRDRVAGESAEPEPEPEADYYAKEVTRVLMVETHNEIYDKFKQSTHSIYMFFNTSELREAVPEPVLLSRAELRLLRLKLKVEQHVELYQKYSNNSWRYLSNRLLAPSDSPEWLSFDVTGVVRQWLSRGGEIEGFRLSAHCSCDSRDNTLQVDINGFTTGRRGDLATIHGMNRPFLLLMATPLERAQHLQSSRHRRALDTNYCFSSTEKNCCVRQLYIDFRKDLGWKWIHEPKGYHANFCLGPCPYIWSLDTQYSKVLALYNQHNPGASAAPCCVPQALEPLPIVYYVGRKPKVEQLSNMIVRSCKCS
T5 sequence (P01137 30-390): as the sequence (P01137 30-390 limits assumed) above
T3 sequence (P17246 30-390 limits assumed): as the sequence (P04202 30-390 limits assumed) above, with E93D, S99T, L131F, S134T, K202V counted along it
Chain of murine LAP-TGFβ1 overexpressed on cells (P04202 30-390): as the sequence (P04202 30-390 limits assumed) above

B1: 20E6_H0.2aL1_hIgG4mut (antibody)
heavy: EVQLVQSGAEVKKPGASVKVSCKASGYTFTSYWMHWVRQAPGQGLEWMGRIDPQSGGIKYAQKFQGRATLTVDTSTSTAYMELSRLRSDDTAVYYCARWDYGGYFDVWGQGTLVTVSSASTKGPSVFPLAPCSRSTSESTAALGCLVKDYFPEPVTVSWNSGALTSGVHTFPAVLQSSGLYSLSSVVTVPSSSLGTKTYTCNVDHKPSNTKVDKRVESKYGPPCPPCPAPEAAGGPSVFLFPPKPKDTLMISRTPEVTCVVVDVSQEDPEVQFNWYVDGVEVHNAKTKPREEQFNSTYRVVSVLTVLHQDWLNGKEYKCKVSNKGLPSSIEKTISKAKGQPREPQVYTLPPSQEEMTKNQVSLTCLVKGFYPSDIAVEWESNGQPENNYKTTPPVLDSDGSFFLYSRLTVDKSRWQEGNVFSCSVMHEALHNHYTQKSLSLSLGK
light: DIQMTQSPSSLSASVGDRVTITCRASQDITNYLNWYQQKPGKAVKLLIYYTSRLHSGVPSRFSGSGSGTDYTLTISSLQPEDFATYFCQQGDTLPWTFGQGTKLEIKRTVAAPSVFIFPPSDEQLKSGTASVVCLLNNFYPREAKVQWKVDNALQSGNSQESVTEQDSKDSTYSLSSTLTLSKADYEKHKVYACEVTHQGLSSPVTKSFNRGEC
In the case of B1, the Kd turned out to be 10.7 nM in test [1]; 26.1 nM in test [2]; 11.1 nM in test [3]; 16.9 nM in test [4]; 0.51 nM in [5]; 1.53 nM in test [6]. Also, the Kd in [7] was 0.51 nM; in [8], 1.31 nM. The dissociation rate constant (koff) in test [1] amounted to 0.0303 s⁻¹; in [2] it was 0.0524 s⁻¹; in [3], 0.0406 s⁻¹; in [4], 0.0478 s⁻¹; in [5] it was 0.00036 s⁻¹; in test [6], 0.00143 s⁻¹. The off-rate constant (koff) in [7] was 0.00087 s⁻¹; in [8], 0.0011 s⁻¹. Besides, the on-rate (kon) in [1] was found to be 2.8e+06 M⁻¹ s⁻¹; in test [2] it was 2e+06 M⁻¹ s⁻¹; in test [3], 3.6e+06 M⁻¹ s⁻¹; in [4], 2.8e+06 M⁻¹ s⁻¹; in [5] it was 700000 M⁻¹ s⁻¹; in test [6], 940000 M⁻¹ s⁻¹. Further, the on-rate constant (kon) in test [7] is 1.7e+06 M⁻¹ s⁻¹; in [8], 840000 M⁻¹ s⁻¹.

B2: 22F9_D102A (antibody, human IgG1, kappa, V domains shown)
VH: QVQLVQPGAEVVKPGASVKLSCKASGYTFTSYWMHWVKQRPGQGLEWIGMIHPNSGSTNYNEKFKSKATLTVDKSSSTAYMELSSLRSEDTAVYYCAYYDYAGFFDVWGQGTLVTVSS
VL: DIQLTQSPSSLSASVGDRVTITCRASKSVSTSGYSYMHWYQQKPGKAPKLLIYLASNLESGVPSRFSGSGSGTDFTLTISSLQPEDFATYYCQHSRELPYTFGGGTKVEIKR
notes: also called 22F9_H5L0 with VH D102A
With B2, the binding result in [9] is given as “binds”.

B3: 22F9_H5.2L0 (antibody, human IgG1, kappa, V domains shown)
VH: QVQLVQPGAEVVKPGASVKLSCKASGYTFTSYWMHWVKQRPGQGLEWIGMIHPQSGSTNYNEKFKSKATLTVDKSSSTAYMELSSLRSEDTAVYYCAYYDYAGFFDVWGQGTLVTVSS
VL: DIQLTQSPSSLSASVGDRVTITCRASKSVSTSGYSYMHWYQQKPGKAPKLLIYLASNLESGVPSRFSGSGSGTDFTLTISSLQPEDFATYYCQHSRELPYTFGGGTKVEIKR
notes: also called 22F9_H5L0 with the double N54Q/D102A mutation
In the case of B3, the binding result in test [9] is “binds”.

B4: 22F9_N54Q (antibody, human IgG1, kappa, V domains shown)
VH: QVQLVQPGAEVVKPGASVKLSCKASGYTFTSYWMHWVKQRPGQGLEWIGMIHPQSGSTNYNEKFKSKATLTVDKSSSTAYMELSSLRSEDTAVYYCAYYDYDGFFDVWGQGTLVTVSS
VL: DIQLTQSPSSLSASVGDRVTITCRASKSVSTSGYSYMHWYQQKPGKAPKLLIYLASNLESGVPSRFSGSGSGTDFTLTISSLQPEDFATYYCQHSRELPYTFGGGTKVEIKR
notes: also called 22F9_H5L0 with VH N54Q
Consider B4, for which the binding result in test [9] is reported as “binds”.

B5: H0L0 (antibody, human IgG1, kappa, V domains shown)
VH: QVQLVQSGAEVKKPGASVKVSCKASGYTFTSYWMHWVRQAPGQGLEWMGRIDPNSGGIKYNEKFKSRVTMTRDTSISTAYMELSRLRSDDTAVYYCARWDYGGYFDVWGQGTLVTVSS
VL: DIQMTQSPSSLSASVGDRVTITCRASQDITNYLNWYQQKPGKAPKLLIYYTSRLHSGVPSRFSGSGSGTDFTLTISSLQPEDFATYYCQQGDTLPWTFGQGTKLEIKR
notes: also called 20E6_H0L0
Take B5: in test [10], the binding result is “no binding (tested: single dose, 50 µL of 100 ng/µL)”.

B6: H2L0 (antibody, human IgG1, kappa, V domains shown)
VH: QVQLVQSGAEVKKPGASVKVSCKASGYTFTSYWMHWVRQAPGQGLEWIGRIDPNSGGIKYNEKFKSRVTLTVDKSSSTAYMELSRLRSDDTAVYYCARWDYGGYFDVWGQGTLVTVSS
VL: DIQMTQSPSSLSASVGDRVTITCRASQDITNYLNWYQQKPGKAPKLLIYYTSRLHSGVPSRFSGSGSGTDFTLTISSLQPEDFATYYCQQGDTLPWTFGQGTKLEIKR
notes: also called 20E6_H2L0
With B6, the binding result in [10] is “no binding (tested: single dose, 50 µL of 100 ng/µL)”.

B7: H3L0 (antibody, human IgG1, kappa, V domains shown)
VH: QVQLVQSGAEVKKPGASVKVSCKASGYTFTSYWMHWVKQRPGQGLEWIGRIDPNSGGIKYNEKFKSKATLTVDKSSSTAYMELSRLRSDDTAVYYCARWDYGGYFDVWGQGTLVTVSS
VL: DIQMTQSPSSLSASVGDRVTITCRASQDITNYLNWYQQKPGKAPKLLIYYTSRLHSGVPSRFSGSGSGTDFTLTISSLQPEDFATYYCQQGDTLPWTFGQGTKLEIKR
notes: also called 20E6_H3L0
B7: the binding result in test [10] is reported as “no binding (tested: single dose, 50 µL of 100 ng/µL)”.

B8: H1L0 (antibody, human IgG1, kappa, V domains shown)
VH: QVQLVQSGAEVKKPGASVKVSCKASGYTFTSYWMHWVRQAPGQGLEWIGRIDPNSGGIKYNEKFKSRVTLTVDTSISTAYMELSRLRSDDTAVYYCARWDYGGYFDVWGQGTLVTVSS
VL: DIQMTQSPSSLSASVGDRVTITCRASQDITNYLNWYQQKPGKAPKLLIYYTSRLHSGVPSRFSGSGSGTDFTLTISSLQPEDFATYYCQQGDTLPWTFGQGTKLEIKR
notes: also called 20E6_H1L0
With B8, the binding result in test [10] was “no binding (tested: single dose, 50 µL of 100 ng/µL)”.

B9: 28G11_mIgG2a (antibody, V domains shown)
VH: EVKLVESGGGLVQPGGSLSLSCAASGFTFTDYYMSWVRQPPGKALEWLGFIRNKPNGYTTEYSASVKGRFTISRDNSQSILYLQMNVLRAEDSATYYCARYTGGGYFDYWGQGTTLTVSS
VL: DIQMTQTTSSLSASLGDRLTISCRASQDISNYLNWYQQKPDGTVKLLIYYTSRLHSGVPSRFSGSGSGTDYSLTISNLEQADIATYFCQQGDTLPWTFGGGTKLEIK
Take B9: the entries for the “IC50 of inhibition of TGFβ1 activation” value in test [11] and in test [12] were 1.6 µg/mL and 0.8 µg/mL, respectively.

B10: 22F9_H5L2 (antibody, human IgG1, kappa)
heavy: not shown
light: DIQLTQSPSSLSVSVGDRATITCRASKSVSTSGYSYMHWYQQKPGKPPKLLIYLASNLESGVPSRFSGSGSGTHFTLTISSVQPEDFATYYCQHSRELPYTFGGGTKLEIKRTVAAPSVFIFPPSDEQLKSGTASVVCLLNNFYPREAKVQWKVDNALQSGNSQESVTEQDSKDSTYSLSSTLTLSKADYEKHKVYACEVTHQGLSSPVTKSFNRGEC
In the case of B10, the “Binding (nm)” value in test [13] amounted to 0.06 nm. In test [14], this molecule returned a Kd of 3.91 nM, a koff of 0.00246 s⁻¹ and an on-rate (kon) of 629000 M⁻¹ s⁻¹.

By Kd is commonly meant the concentration at which binding is half-saturated. Broadly, the koff is the rate constant with which the complex falls apart. Usually kon stands for a measure of how fast the partners come together.
